Columns and labels:
Assay in all cases: EMSA
Conditions in all cases: EMSA: 25 mM Tris-HCl pH 7.4, 100 mM NaCl, 5 ng DNA in 10 ul, 20 min, room temperature, AFM: 25 mM HEPES-NaOH pH 7.4, 5 mM MgCl2, 50 mM NaCl, 10% glycerol
[1] = system: Rec114(388-428) K403A/K407A-Mei4N (Saccharomyces cerevisiae)
[2] = system: Rec114(388-428) R395A/K396A-Mei4N (Saccharomyces cerevisiae)
[3] = system: Rec114(325-428)-Mei4(1-90) (Saccharomyces cerevisiae)
[4] = system: Rec114(386-428)-Mei4N (Saccharomyces cerevisiae)
[5] = system: Rec114(388-428)-Mei4(13-43) (Saccharomyces cerevisiae)
[6] = system: Rec114(388-428) K399A/R400A-Mei4N (Saccharomyces cerevisiae)
[7] = biological target: T1, Rec114C-Mei4N (RM-TDB) (Saccharomyces cerevisiae) (UniProt P32841+P29467)
T1 sequence 1: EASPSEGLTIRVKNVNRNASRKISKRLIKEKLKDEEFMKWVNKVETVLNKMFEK
T1 sequence 2: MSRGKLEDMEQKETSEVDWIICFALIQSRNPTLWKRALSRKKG

[8] = system: Rec114(388-428) K417A/K424A-Mei4N (Saccharomyces cerevisiae)
[9] = system: Rec114(388-428)-Mei4N (Saccharomyces cerevisiae)
[10] = system: Rec114C-Mei4N-ybbR-LD650 (Saccharomyces cerevisiae)
[11] = system: Rec114C-Mei4N-ybbR (Saccharomyces cerevisiae)
[12] = system: Rec114C (Saccharomyces cerevisiae)

Row | Substance | K half [1] [nM] | K half [2] [nM] | K half [3] [nM] | K half [4] [nM] | K half [5] [nM] | K half [6] [nM] | K half [7] [nM] | K half [8] [nM] | K half [9] [nM] | K half [10] [nM] | K half [11] [nM] | K half [12] [nM]
1 | 150-bp linear DNA | 1000 | 1000 | 90 | 110 | 100 | 2000 | 90 | 900 | 110 | 90 | 90 | 
2 | 1000-bp linear DNA |  |  |  |  |  |  | 80 |  |  |  |  | 300
